B1: Protein C-ets-2 (Homo sapiens), P15036 (parent)
chain: MNDFGIKNMDQVAPVANSYRGTLKRQPAFDTFDGSLFAVFPSLNEEQTLQEVPTGLDSISHDSANCELPLLTPCSKAVMSQALKATFSGFKKEQRRLGIPKNPWLWSEQQVCQWLLWATNEFSLVNVNLQRFGMNGQMLCNLGKERFLELAPDFVGDILWEHLEQMIKENQEKTEDQYEENSHLTSVPHWINSNTLGFGTEQAPYGMQTQNYPKGGLLDSMCPASTPSVLSSEQEFQMFPKSRLSSVSVTYCSVSQDFPGSNLNLLTNNSGTPKDHDSPENGADSFESSDSLLQSWNSQSSLLDVQRVPSFESFEDDCSQSLCLNKPTMSFKDYIQERSDPVEQGKPVIPAAVLAGFTGSGPIQLWQFLLELLSDKSCQSFISWTGDGWEFKLADPDEVARRWGKRKNKPKMNYEKLSRGLRYYYDKNIIHKTSGKRYVYRFVCDLQNLLGFTPEELHAILGVQPDTED
B2: Protein C-ets-1 (Homo sapiens), P14921-1 (parent)
chain: MKAAVDLKPTLTIIKTEKVDLELFPSPDMECADVPLLTPSSKEMMSQALKATFSGFTKEQQRLGIPKDPRQWTETHVRDWVMWAVNEFSLKGVDFQKFCMNGAALCALGKDCFLELAPDFVGDILWEHLEILQKEDVKPYQVNGVNPAYPESRYTSDYFISYGIEHAQCVPPSEFSEPSFITESYQTLHPISSEELLSLKYENDYPSVILRDPLQTDTLQNDYFAIKQEVVTPDNMCMGRTSRGKLGGQDSFESIESYDSCDRLTQSWSSQSSFNSLQRVPSYDSFDSEDYPAALPNHKPKGTFKDYVRDRADLNKDKPVIPAAALAGYTGSGPIQLWQFLLELLTDKSCQSFISWTGDGWEFKLSDPDEVARRWGKRKNKPKMNYEKLSRGLRYYYDKNIIHKTAGKRYVYRFVCDLQSLLGYTPEELHAMLDVKPDADE

Variants of: B1
Settings: with cop1_human COP1, Q8NHY2
Target sequence in this assay (Q8NHY2 whole entry): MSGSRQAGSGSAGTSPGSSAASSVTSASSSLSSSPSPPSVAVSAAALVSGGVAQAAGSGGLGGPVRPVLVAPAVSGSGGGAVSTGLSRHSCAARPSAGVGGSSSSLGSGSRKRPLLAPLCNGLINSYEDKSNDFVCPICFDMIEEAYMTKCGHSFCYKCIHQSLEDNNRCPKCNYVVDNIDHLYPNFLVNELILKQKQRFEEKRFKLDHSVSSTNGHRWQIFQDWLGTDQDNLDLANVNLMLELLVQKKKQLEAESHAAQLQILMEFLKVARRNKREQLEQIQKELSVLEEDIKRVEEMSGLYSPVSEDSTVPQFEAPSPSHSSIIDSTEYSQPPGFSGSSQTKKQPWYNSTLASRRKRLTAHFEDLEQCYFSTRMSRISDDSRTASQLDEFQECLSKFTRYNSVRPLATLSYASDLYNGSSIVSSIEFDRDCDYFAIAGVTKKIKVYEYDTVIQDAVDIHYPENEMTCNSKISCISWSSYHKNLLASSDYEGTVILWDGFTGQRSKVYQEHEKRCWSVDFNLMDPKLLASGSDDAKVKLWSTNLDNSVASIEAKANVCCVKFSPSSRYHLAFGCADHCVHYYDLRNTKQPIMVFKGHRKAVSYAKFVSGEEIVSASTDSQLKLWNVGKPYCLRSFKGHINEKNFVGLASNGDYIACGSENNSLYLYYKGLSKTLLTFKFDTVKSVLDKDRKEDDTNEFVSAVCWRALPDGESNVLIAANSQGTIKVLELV

Row | effect of a mutation on the interaction | Variant
1 | decreasing interaction strength | V52A;P53A
2 | disrupting interaction strength | V52A;P53A;V308A;P309A
3 | decreasing interaction strength | V308A;P309A

Variants of: B2
Settings: with cop1_human COP1, Q8NHY2
Target sequence in this assay (Q8NHY2 whole entry): as above

Row | effect of a mutation on the interaction | Variant
4 | increasing interaction strength | S282D;Y283F
5 | increasing interaction strength | S276D;Y283F
6 | increasing interaction strength | S282A;Y283F
7 | increasing interaction strength | S276A;S282D;Y283F
8 | increasing interaction strength | Y283F
9 | increasing interaction strength | S276D;S282D;Y283F

Variants of: B2
Settings: with cop1_human COP1, Q8NHY2
Remark: another data set of the same source
Target sequence in this assay (Q8NHY2 whole entry): as above

Row | effect of a mutation on the interaction | Variant
10 | disrupting interaction strength | V280A;P281A

Reference: IntAct's records for PubMed 25117710
